Experimental data taken from article PMC12001115, “Double prenylation of budding yeast Ykt6 regulates cell wall integrity and autophagy” (The Journal of Biological Chemistry, 2025).

Target: T1, Ecm9 (recombinant, subunit of yeast GGT3) (budding yeast (S. cerevisiae), UniProt Q02202 1-377)
T1 construct: Ecm9, budding yeast; no tag is named for this chain; also called recombinant yeast GGT3 α subunit
T1 sequence (looked up): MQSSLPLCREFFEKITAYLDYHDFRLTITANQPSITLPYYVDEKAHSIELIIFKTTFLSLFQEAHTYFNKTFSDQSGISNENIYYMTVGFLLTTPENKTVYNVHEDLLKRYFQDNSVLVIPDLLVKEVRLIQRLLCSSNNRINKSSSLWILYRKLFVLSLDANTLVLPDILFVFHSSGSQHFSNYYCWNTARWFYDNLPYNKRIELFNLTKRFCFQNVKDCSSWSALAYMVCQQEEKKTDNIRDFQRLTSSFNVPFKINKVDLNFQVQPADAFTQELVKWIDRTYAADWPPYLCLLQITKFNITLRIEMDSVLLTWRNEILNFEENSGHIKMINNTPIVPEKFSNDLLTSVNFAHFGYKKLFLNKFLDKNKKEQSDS
Test: SEC; Ecm9 and GST-Bet2 co-expressed in ExpiSf cells and co-purified (glutathione Sepharose, GST cleaved, MonoQ), then Superdex 200 Increase gel filtration in buffer A (50 mM HEPES-KOH pH 7.4, 50 mM NaCl, 5 mM MgCl2, 1 mM DTT); SDS-PAGE with Coomassie staining
Conditions: both partners purified

B1: Bet2 (recombinant, subunit of yeast GGT3) (natural protein, budding yeast (S. cerevisiae), UniProt P20133 1-325, looked up)
chain: MSGSLTLLKEKHIRYIESLDTKKHNFEYWLTEHLRLNGIYWGLTALCVLDSPETFVKEEVISFVLSCWDDKYGAFAPFPRHDAHLLTTLSAVQILATYDALDVLGKDRKVRLISFIRGNQLEDGSFQGDRFGEVDTRFVYTALSALSILGELTSEVVDPAVDFVLKCYNFDGGFGLCPNAESHAAQAFTCLGALAIANKLDMLSDDQLEEIGWWLCERQLPEGGLNGRPSKLPDVCYSWWVLSSLAIIGRLDWINYEKLTEFILKCQDEKKGGISDRPENEVDVFHTVFGVAGLSLMGYDNLVPIDPIYCMPKSVTSKFKKYPYK
notes: Bet2, budding yeast; also called GST-BET2; recombinant yeast GGT3 β subunit; not shown: GST, N-terminal, cleaved
- binding result: binds
